Experimental data from the DeepSol protein solubility set.

Test: soluble on expression in E. coli; label from the status in PepcDB or PDB records

| Sequence | soluble on expression in E. coli |
| --- | --- |
| MKIACVVLTYNRLSLLKRCIDSIRNQTYQEFDIYVIDNASTDGTAHWLSLQNDLTVISIHENKGPANGFYTCLQVPYDDGYDWIWMMDDDGVADKGQLEELLNKTVKNNLYFTNALVCNIDNPEKIAFGAKKTIDTQREELIKGNINPFNGTFIHRRVIEKNGNIMREMYMYGCETEYQLRAIKNGFQVATVTSAIHYHPSPKVSICHLIPYIKYCSIIDYPIDTLFYIRNKAYINYTYLGFKRSLFMITSYSLYYLFRLKIRKVLLFWKYYREGCKGVVGNKKQ | soluble |
| MAHHHHHHMSISVRIRTPKSSTPEQVELNSSGTWGEAAVLLSRKSEVALERLRVLAGFPPKAVDLAADSPLSALKLRANDMLIVQEGEAKVQLGNTGERYVPPAPERAHLTRRRCPADNSCLFHACAYVLRDKSRTEGPQLRQECVQAVLDHPEMFNVNTLGMDPLAYASWLSQKDTWGGAIELEILSFLYKTEMFALDLQSVTVQRFGTGLGYTVRAFLVYTGNHYDCIAMNPVYNSASEREDQTLFSSRDENVLVRAKRFVAEEGQKMKEGKAT | soluble |
| MRKIVLASVVTSLVGCSMGHRDPVEAKQALNQAINETNSRQIDQLPPSVEADLMPDMDTLTASEPKTLQRFRIQAEDVEAKAFFASLVQGTEYSAAIHPAVTGRITLNLTDVTLDEALGVVRDLYGFEVVKEGKVIQVYPAGLRTVTIPVDYLQFKRTGRSLTSITTGTITNTDTNNSNSSSSSSSSISSNSSSDGSSSNSNSNRSDARGGTEIETTNESDFWPLLEKAVAQLLGGSGGQTVIVNPQAGVLTLRAYPDEIRQVNEFLGISQQRMHRQVILEAKILEVTLSDGYQQGINWSKAFSSNGANYKIGSGSITQDSNGNPITSVLPGLDAIGNLLGGQSNVVISSGSFDAVISFMATQGDLNVLSSPRVTASNNQKAVIKVGTDEYYVTDLSSVVGTGDNAQASPDITLTPFFSGISLDVTPQIDDQGNVLLHVHPAVIEVEQQTKKILYRSEEIELPLARSSIRESDSVIRAKDGDVVVIGGLMKSNTVDQVSKVPFLGDVPALGHLFRNTTKLTQKTELVILLKPTVVGVNTWQKELERSRSLLQEWFPDSQ | not soluble |
| MLCTHIKAEDCVERVPKGMFRKKQDMEDNNLFLEGNSNRGKVVKNQEIIKTFCDECDNCNKSLMCLTCGRILCGRNDSGHALHHFEETSHPVVIDCISFELYCYSCDDEVSLDFEPSLYGVLKSLKLLFDREDVMEGGDGPTIPAQPFHSRKNRISHEKSDKLRFSVKKTPIFLRNSIFLSGISENFDFSVKNGKKHQKSIFPPKKPKKSDLSAQKTSKSVFAPKQPKNSEFFNPKKHQISIFPTKNPQKFLFSVEKSIFSTINVQKCAPKKHQISIFPPKKPKNSDFPLKNPQFSFRTVTSVASTFTQKLHVAPASRNSKKKRGKKGKVSPMFVDTPPFQQQQGAAVIHDVTLSSTNSTSSGSGGATSSSEIAYRPRGMRNVGNTCFMNAVLQALASISEFREYIMSLSSLEDYIHDEKEPKNGGNYCYLTDEYRKLLISQSARSFREPTAPNEFREAFISVCPRFRGFRQHDSHEFMRYFMDSLHTEMRKCRKLPGMPDDKHTPISKYFEGTLQSSVICQTCRNCSNKIDEFMDLSLDIPAQRNASKVRLSDCLSTFFKLEMLEKGEKPECAKCKTKQTCSKQMFIRKLPQDSDEAPCTYSLQSIIVHIGYGCGSGHYIAFGKRNGRWFQFDDTVVKGVDEAHVSKQKAYVLLYTKIIRKID | not soluble |
| SLSSVNCIEQTTEWTACSKSCGMGFSTRVTNRNRQCEMLKQTRLCMVRPCEQEPEQPTDKKGKKCLRTKKSLKAIHLQFKNCTSLHTYKPRFCGVCSDGRCCTPHNTKTIQAEFQCSPGQIVKKPVMVIGTCTCHTNCPKNNEAFLQELELKTTRGKM | soluble |
| GSSEEESFFVQVHDVSPEQPRTVIKAPRVSTAQDVIQQTLCKAKYSLSILSNPNPSDYVLLEEVVKDTTNKKTTTPKSSQRVLLDQECVFQAQSKWKGAGKFILKLKEQVQASREDK | soluble |
| MTAGPQAHGHAPQTAGLAALEARLRQDLAWLELPAKPWTLPHALDGQPVLDVAIIGGGMAGLAAATALKHLGIGAVVFDRAPEGYEGPWATTARMETLRSPKQLTGPALGLPALTFRAWFEAQFGADAWETLDKIPRLQWMDYLRWYRRVLQLEVRNAHHVRTVQPRADGAVELTLDTPDAAGQRVLARRVVLATGRDGLGGPAVPAFAHRLPHRWWAHSSDAMDYGALAGKRVGVIGAGASAMDSAATALEAGAASVDLLIRRPDLPRINKGKGAGSPGLVHGHQHLPDAWKWRIRHYINAEQVPPPRGSTLRVSRHPNARFNLGCPVLGVDEHNGALHVTTPKGVFRLDFLIFSTGFRLDWAARPEFSALAPHVRLWRDRYTPRPGEEDAELSDSPDLGPAFELREKTPGQLPGLSRVHCFCYPASLTHGSVSGDIPAISEGARRLAQGIAGLLYQEDIEGHYAAMQAYAEPEIFGDEWTPAPPPQSEPAAAAASPAREAARLEHHHHHH | not soluble |
| GPGSMNPATKDVASAEEESPVVCTAKQYIFDLHSYAWKESDCLIRIPRPHKGMGHGGMRVCYAVEDVDEEGAGTPMVAKMFRRNISNVVEKDYFNEGAAQCMCEEFANNFNRIHLTNIRKPNISFLQCYVVRIPRDSIPAASQRKRTGFFSYKTQDTGEVMFVMEPMLSGKFTKYNSNYGETYREDKKAALTSSEARRRTEIFEAAETFSHFTLVESGGSMLVCDLQGVNDFFTDPQIHTEDGKGLGMGNMGQEGIDKWIEKHECNDICRALGLQPLLGAVPSSTACAREENMYLGLRAQLQSQNPVRLRDLVPLTKPLEEMTEAERIEYALKVSRLTD | soluble |
| MGSDKIHHHHHHMVDVLVIGGGNAALCAALTAREAGASVLLLEAAPREWRGGNSQHTRNLRCMHDAPQDVLVESYPEEEFWQDLWRVTDGNTNEALARLVIRTSSQCRDWMRKHGVNFQPPLSGALHVARTNAFFMGGGKALVNAYYRSAERLGVQVRYNTPVHALELHDGEFVAALAGSERITAKACVLAAGGFESNREWLREAWGENARGEWPADNFLIRGTRFNQGVLLKFMMDAGADIIGDPSQSHCVAIDARAPLYDGGICTRVDCVSLGIVVNRDAERFYDEGEDFWPKRYAIWGRLVAQQPGQIGYSIIDSKAIGHFMPPVFPGAQANTLAELACQLGLDAEKFTHTVTQYNQACQPGHFDHTLLDDCATKNLTPAKTHWARPLDAPPYYGYALRPGITFTYLGLKVNERAAVHFAGHPSRNLFVAGEMMAGNVLGKGYTAGVGMSIGTTFGRIAGIEAARAAHKEAQHETA | not soluble |
| SAAGVDGDTAAAAAAGGGVVVVFDFDRTIIEWDSDDWVITKLGASDAFRRLRPTMRWNPLMDRMMVELHAQGRSADDIRDCLKSAPLDAHVLSAITTASALGCDLRVASDANAFFIETVLEHHGVLGCFSEISTNPARVDGNGRLRISPFHDPDDSSPHGCSLCPENMCKGKIIERIQATANGKRHFIYIGDGRGDYCPSLKLGEGDYVMPKEKYPLWNLISSNKQLLKAEVHPWNNGEELEQTLLKLVNKLITPPAQPSQFEYKCDMSNPVSTEVGQALRVPH | soluble |
| MKRGDIAHGLRLSGFKSLFPFSLHWCHTASKSVNCTWHQHEDHLELQYASTVMRFDYVWLRDHCRSASCYNSKTHQRSLDTASVDLCIKPKTIRLDESTLFFTWPDGHVTRYDLDWLVKNSYEGQKQEVIQPRVLWNAKLYQDAQLPSVDFQGFLETKEGLKKFLQNFLLYGIAFVENVPPTQEHTEKLARRVSLIRETIYGRMWYFTSDFSRGDTAYTKLALDRHTDTTYFQEPCGIQVFHCLKHEGTGGRTLLVDGFYAAQQVLQRAPEEFDLLSQVPLKHEYIENVGQCHNHMIGVGPILNIYPWNKELYLIRYNNYDRAVINTVPYDVVRRWYAAHRTLTTELRRPENELWVKLKPGKVLFIDNWRVLHGRESFTGYRQLCGCYLTRDDVLNTARILGLHA | not soluble |
| MNHMEILSFPAGPYQTNCYVVLSEESEGRRYASVIDPGLRAKELIDQYCEENRVEVVQVLLTHGHIDHCRDAAALANGWGVALQIHRYDEFFLDKGNGMSEDSRLLFHADAMNLPDSVSYLGDGDEVELGGQRFVVRHAPGHSPGCVLFVGKDFCFSGDVLFKGSIGRTDLAHSDPHAMSNSIKSVVLGLEDSLTILPGHGPATTMRAEKASNPYLRV | not soluble |
| MGSDKIHHHHHHMPVFYPAVQGSLPMGGQESLPLRRLKSFQPLGRLTDDQLVLLASRAERRTHGPGQRVMERGVRDGLDYFLISGAVELQSVDGRKSTIEAETDKALNPVARLQPRMYDVTAVKPCEFLVIEQEVLNQMLRAAPISQVEMDSSDHDEDQSEEHHLLMEFYSELRSNQVQLPSVPDVAWKVRRVVDREDSSATEVASAVSADPAMAAKLVRSCNSPLYRGFSDVRNVREAVVRLGMRTTRQLVTVFAMREVFKTRRAPLQKEMEQLWRHSREVAALCWVLADHATRIDPEEALLAGLLHDIGVVPVLVQAEHHVNLFADDRNLHHAIDELRADVGCAVLENWAFPKAFVEAVRHAEDWHHECRETAPQLVDVVIVAQLHSMIGSSQNEGLPAFDQVPAWRRLGELELNASRSLQLLSEARERVDEVQKLLSIR | not soluble |
| MKKLEIEFEQVVKQYKNTIYTVCFMFSKDSREVNDLFQDVLVNLWKGFDTFKGESNIGTWIWRVSLNTCISSDRKKKIVSVPLIMGIDLFEDRDEDTTQIKMLYNRISRLKHFDRAIVLLWLENFSYEEIAAIVGISVKNVSVRLFRIKEELKKMSNN | not soluble |
| ANQQTSGKVLYEGKEFDYVFSIDVNEGGPSYKLPYNTSDDPWLTAYNFLQKNDLNPMFLDQVAKFIIDNTKGQMLGLGNP | soluble |
| MGSDKIHHHHHHACSDDDKVSISTVGITTTVDTTIEGLQLTGGTYTFENVNTSVKTDITYPAQSIELADGLYNVTFIGKGTYSQNGTPVEVDVQGVQQNVAVSGGSYKLELKVHVLNTGDPDFVIAEIFIPGTYNEAGKQYNGDQYIRIYNNSDKVLYADGLIFMESQFQTTQKYQSVDPDIMDEAIAVGSVVAVPGSGTDYPVQPGESFILCDNAINHKEANPNSIDLSKANFEWYIESKQDVDNPAVPNLDVYYCYSKTIWVLNKQGNRAYAIGRLPKSMTKEKYISDYAYNYTYIMQNGTASKPQSKYKFPNEWVIDAVNVGASNEWQWNVTSTGLDMGHTYIGMNNTVAENIGKCVMRKAAYKDGDREVLQDTNNSTVDFTPAATPSLFNK | not soluble |
| MAEREVRSTAYQLNAARFPLYRDLAGFDFASSEINEALVRQLHRCEFMDQANNVVLVGGPGTGKTHITTALGVRAVEHQCKRVRFFSTVEFVNVLEQEGPRAGQIANRLAHSDLVILNELGYLPFSASGGALLFHLLSTLYGRAPASSSPLKLISASASGLP | not soluble |
| MPLPYDKEKKLWKVTGWYLESSEETGEVMQSKQIAFEGYTNEENFANRQRVSVFKSFYESGNLKSIYHYNAQNKRDGKAETYFDEKDKIAETLTFKDGQPEGEYIVYHENGAVESKRYFAQGKIKDGECPHFYDNGVLKQKHSYLNQKLEGPAFEYFPDGKIKGKYSYSKGTIVGTSTEYYSTGKIRGVYHRNNQGENDGTFEQYSEEGKLLSKATYKNGKQLSAQSWYENGHPKEESSFDSEGRKHGAVKEWFSNGKPASSKMYKHDVLDGDFEKWYENGHRESVYPYKNGMLNGDAKHWNEQGKLTYTTEYKDDKKQGADRRWSERTGKLVEEVMFANDERNGLKREFNDRTGKVLSALPYVDGDKEGTEEAYDEDGIKYIRCYHNDEELSELYAPTDVTNKAKQGDSTAQYHLGKYEFECTNYDAAMKWLTQSAEQNHPGALLFLAYAYNDGDGVAQDSKKYLSYLFKAAELGESDAQLEVGYLNLIGEGMPKNLPEAYKWIKKSADQGNAQAHYNLGLMYRNGDGVEKDLNKAKLHLTAAVKGGVKPALAALKELTPQTKLEHHHHHH | not soluble |
